The values below come from the nanobody polyreactivity screen of Harvey et al. (2022).

A short description of the series: yeast display, Sf9 membrane polyspecificity reagent, FACS + sequencing; frameworks hold sequencing errors. The procedure, abridged: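 Genes from sorted yeast were amplified by colony PCR, read by MiSeq 2 × 250 sequencing and filtered on CDR length. These cells carried a synthetic nanobody library in Saccharomyces cerevisiae BJ5465 and were sorted by FACS into low and high (top ~1%) gates on anti-HA and streptavidin fluorescence. Polyreactivity is labelled according to the gate of origin.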
For the sequence “QVQLVESGGGLVQAGGSLRLSCAASGGILHYYAMGWYRQAPGKERELVAAISWSGGSTYYADSVKGRFTISRDNAKNTVYLQMNSLKPEDTAVYYCNKVGVAYIFGWMDYWGQGTQVTVSS”, the “polyreactivity (PSR sort gate)” value is listed as “high polyreactivity”.

On to “QVQLVESGGGLVQAGGSLRLSCAASGGILSYNTMGWYRQAPGKERELVAAITSSGGRTYYADSVKGRFTISRDNAKNTVYLQMNSLKPEDTAVYYCNTVYYFTYYYWGQGTQVTVSS”, for which the “polyreactivity (PSR sort gate)” value is “high polyreactivity”.

Turning to “QVQLVESGGGLVQAGGSLRLSCAASGGILVFYAMGWYRQAPGKERELVAAINVSGGSTYYADSVKGRFTISRDNAKNTVYLQMNSLKPEDTAVYYCAALGPYLDYGVQYGYWGQGTQVTVSS”, the “polyreactivity (PSR sort gate)” value was “low polyreactivity”.

Consider “QVQLVESGGGLVQAGGSLRLSCAASGGIVGYYAMGWYRQAPGKERELVAAISWSGGSTYYADSVKGRFTISRDNAKNTVYLQMNSLKPEDTAVYYCAASDSYGYDYWGQGTQVTVSS”, for which the “polyreactivity (PSR sort gate)” value was “high polyreactivity”.

With “QVQLVESGGGLVQAGGSLRLSCAASGGIYRYYAMGWYRQAPGKERELVAAISTSGTDTYYADSVKGRFTISRDNAKNTVYVQMNSLIPEDTAVYYCAAELYRYGFYEPIYPYSYDYWGQGTQVTVSS”, the “polyreactivity (PSR sort gate)” value is listed as “low polyreactivity”.

Regarding “QVQLVESGGGLVQAGGSLRLSCAASGGLFTLNAMGWYRQAPGKEREMVAGISWSGDRTYYADSVKGRFTISRDNAKNTVYLQMNSLKPEDTAVYYCAAYDYWGQGTQVTVSS”, the “polyreactivity (PSR sort gate)” value is recorded as “low polyreactivity”.

In the case of “QVQLVESGGGLVQAGGSLRLSCAASGGNFVFNAMGWYRQAPGKERELVAVITYSGGRTYYADSVKGRFTISRDNAKNTVYLQMNSLKPEDTAVYYCNARYGYPLGHSIYYYWGQGTQVTVSS”, the “polyreactivity (PSR sort gate)” value is on record as “low polyreactivity”.

On to “QVQLVESGGGLVQAGGSLRLSCAASGGTFAGNAMGWYRQAPGKERELVAAISKSGAITYYADSVKGRFTISRDNAKNTVYLQMNSLKPEDTAVYYCAARYLSGTSRYYYWGQGTQVTVSS”, for which the “polyreactivity (PSR sort gate)” value is recorded as “high polyreactivity”.

As to “QVQLVESGGGLVQAGGSLRLSCAASGGTFAIYVKGWYRLAPGKERELVAAITRVGSTYADSVKGRFTISRDNAKNTVYLQMNSLKPEDTAVYYCAAVSGVRSGPWRYDYLGQGTQVTVSS”, the “polyreactivity (PSR sort gate)” value is “high polyreactivity”.

As to “QVQLVESGGGLVQAGGSLRLSCAASGGTFARNAMGWYRQAPGKERELVAAIRGGVSTNYADSVKGRFTISRDNAKNTVYLQMNSLKPEDTAVYYCNASPPTLEGYWGQGTQVTVSS”, the “polyreactivity (PSR sort gate)” value is “low polyreactivity”.

As for “QVQLVESGGGLVQAGGSLRLSCAASGGTFDSYAMGWYRQAPGKERELVAAITQSGGRTYYADSVKGRFTISRDNAKNTDYLQMNSLKPEDTAVYYCAAKGITRYGYWGQGTQVTVSS”, the “polyreactivity (PSR sort gate)” value is given as “high polyreactivity”.

Turning to “QVQLVESGGGLVQAGGSLRLSCAASGGTFERNAMGWYRPAPGKERELVAAITGSGGRTYYADSVKGRFTISRDNAKNTVYLQMNSLKPEDTAVYYCAAVPWWKYNYWGQGTQVTVSS”, the “polyreactivity (PSR sort gate)” value is “high polyreactivity”.

Consider “QVQLVESGGGLVQAGGSLRLSCAASGGTFEYNAMGWYRPAPGKERELVAAISKSGGRTYYADSVKGRFTISRDNAKNTVYLQMNSLKPEDTAVYYCAKRYVWGQGTQVTVSS”, for which the “polyreactivity (PSR sort gate)” value was “high polyreactivity”.

Regarding “QVQLVESGGGLVQAGGSLRLSCAASGGTFFYNAMGRYRQAPGKERELVAAINGGTSTNYADSVKGRFTISRDNAKNTVYLQMNSLKPEDTAVYYCAAVYRRLGRYDWYDYWGQGTQVTVSS”, the “polyreactivity (PSR sort gate)” value is given as “low polyreactivity”.

In the case of “QVQLVESGGGLVQAGGSLRLSCAASGGTFGRNVMGWYRQAPGKERELVAAISIRGGSTYYADSVKGRCTISRDNAKNTVYLQMNSLKAEDTAVYYCARDYPTDAYDYWGQGTQVTVSS”, the “polyreactivity (PSR sort gate)” value is given as “low polyreactivity”.

“QVQLVESGGGLVQAGGSLRLSCAASGGTFGRYAMGWYRQAPGKERELVADINWSGGGTYYADSVKGRFTISRDNAKNTVYLQMNSLKPEDTAVYYCGARVVEIFHWAGDYWGQGTQVTVSS”: the “polyreactivity (PSR sort gate)” value is reported as “low polyreactivity”.

In the case of “QVQLVESGGGLVQAGGSLRLSCAASGGTFHHYAMGWYRQAPGKERELVASITNGASTYYADSVKGRFTISRDNAKNTVYLQMNSLKPEDTAVYYCAKRCRVGKYRYEYWGQGTQVTVSS”, the “polyreactivity (PSR sort gate)” value is on record as “low polyreactivity”.

Regarding “QVQLVESGGGLVQAGGSLRLSCAASGGTFHYYAMGWYRQAPGKERELVAAINRSGDSTYYADSVKGRFTISRDNAKNTVYLQMNSLKPEDTAVFYCAVSYYGADGNPFPHDYWGQGTQVTVSS”, the “polyreactivity (PSR sort gate)” value is reported as “low polyreactivity”.

With “QVQLVESGGGLVQAGGSLRLSCAASGGTFIANAMGWYRPAPGKERELVAAITSRGGNTYYADSVKGRFTISRDNAKNTVYLQMNSLKPEDTSVYYCAARNDKRRQYYVGQSAFDFWGQGTQVTVSS”, the “polyreactivity (PSR sort gate)” value was “low polyreactivity”.

For “QVQLVESGGGLVQAGGSLRLSCAASGGTFKTNAMGWYRQAPGTERELVAAIRYSGGDTYYADSVKGRFTISRDNAKNTVYLLLKSLKPEDTAVYYCAADFTLLYDYWGQGTQVTVSS”, the “polyreactivity (PSR sort gate)” value is recorded as “low polyreactivity”.

As to “QVQLVESGGGLVQAGGSLRLSCAASGGTFKYYDMGWYRQAPGKEREFVAAISKRVSSTYYADSVKGRFTISRDNAKNTVYLQMNSLKPEDTAVYYCAAYPVRYYNQYDYWGQGTQVTVSS”, the “polyreactivity (PSR sort gate)” value is on record as “low polyreactivity”.

As for “QVQLVESGGGLVQAGGSLRLSCAASGGTFLYYMGWYRQAPGKERELVAAITFSGGSTYYADSVKGRFTISRDNAKNTVYLQMNSLKPEDTAVYYCAAGWYDWPKYLLSVYTYYLYDSWGQGTQVTVSS”, the “polyreactivity (PSR sort gate)” value is “low polyreactivity”.

For the sequence “QVQLVESGGGLVQAGGSLRLSCAASGGTFMYYDMGWYRQAPGKERELVAAISSGSSTYYADSVKGRFTISRDNAKNTVYLQMNRLKQEDTAVYYCAKLHYAHYWGQGTQVTVSS”, the “polyreactivity (PSR sort gate)” value is recorded as “low polyreactivity”.

With “QVQLVESGGGLVQAGGSLRLSCAASGGTFNAYAMGWYRQAPGKERELVATISYSGGSTYYADSVKGRFTISRDNAKNTVYLQMNSLKPEDTAVYYCAKVRYYPYSPGGLDYWGQGTQVTVSS”, the “polyreactivity (PSR sort gate)” value is “low polyreactivity”.

Regarding “QVQLVESGGGLVQAGGSLRLSCAASGGTFPFYAMGWYRQAPGKERELVAAITFTTSSTYYADSVKGRFTISRDNAKNTVYLQMNSLKPEDTAVYYCAVDYGWYSSYYREYDYWGQGTQVTVSS”, the “polyreactivity (PSR sort gate)” value is “low polyreactivity”.

As to “QVQLVESGGGLVQAGGSLRLSCAASGGTFPLYAMGWYRQAPGKARELVAAIRWSGGRTYYADSVKGRFTISRDNAMKTVYLQMNSLKPEDTAVYYCAADYDDGWGYDYWGQGTQVTVSS”, the “polyreactivity (PSR sort gate)” value was “high polyreactivity”.

Regarding “QVQLVESGGGLVQAGGSLRLSCAASGGTFPSNAMGWYRQAPGQERELVAAITGSSDTTYYADSVKGRFTISRDNAKNTVYLQMNSLKPEDTAVYYCAADTPRDTNRYEYWGQGTQVTVSS”, the “polyreactivity (PSR sort gate)” value is “low polyreactivity”.

As to “QVQLVESGGGLVQAGGSLRLSCAASGGTFPVYAMGWYRQAPGKERELVAAISYSGVTTYYADSVKGRFTISRDNAKNTVYLQMNSLKPEDTAVYYCNADWRRWYIFSYDYWGQGTQVTVSS”, the “polyreactivity (PSR sort gate)” value is “low polyreactivity”.

Turning to “QVQLVESGGGLVQAGGSLRLSCAASGGTFPYNAMGWYRQAPGTERELVAVITSGDGTYYADSVKGRFTNSRDNAKNTVYLQMNSLKPEDTAVDYCAAVIFWDVPYDYWGQGTQVTVSS”, the “polyreactivity (PSR sort gate)” value was “low polyreactivity”.

As to “QVQLVESGGGLVQAGGSLRLSCAASGGTFRAYAMGWYRQAPGKEREFVAAITWSGGRTYYADSVKGRFTISRDNANNTVYLQMNSLKPEDTEVYYCATDQGHYYHAEHDYWGQGTKVTVSS”, the “polyreactivity (PSR sort gate)” value was “low polyreactivity”.

As to “QVQLVESGGGLVQAGGSLRLSCAASGGTFRGYVMGWYIQAPGKERELVAAISYSGGTTYYADSVKGRFTISRDNAKNTVYLQMNSLKPEDTAVYYCNKGYRRYEDGATPGYGYWGQGTQVTVSS”, the “polyreactivity (PSR sort gate)” value is “high polyreactivity”.

Take “QVQLVESGGGLVQAGGSLRLSCAASGGTFRPNAMGWYRQAPGKERELVAAITRSGGSTYYADSVKGRFTISRDNAKNTVYLQMNSLKPEDTAVYYCARDLREWGQGTQVTVSS”: the “polyreactivity (PSR sort gate)” value is given as “low polyreactivity”.

Take “QVQLVESGGGLVQAGGSLRLSCAASGGTFRSNAMGWYRQAPGKERELVAAISKRGGSTHYADSVKGRFTISRDNSKNTVYLQMNSLKPEDTAVYYCNTYGWQEGDYWGQGTQVTVSS”: the “polyreactivity (PSR sort gate)” value was “high polyreactivity”.

As to “QVQLVESGGGLVQAGGSLRLSCAASGGTFRTYTMGWYRQAPGKERELVAAINFRGGSTYYADSVKGRFTISRDNAKNTVYLQMNSLKPEDTAVYYCATPLQQEGDWGQGTQVTVSS”, the “polyreactivity (PSR sort gate)” value is recorded as “high polyreactivity”.

In the case of “QVQLVESGGGLVQAGGSLRLSCAASGGTFSFNAMGWSRQAPGKEREVVAAITSDDGTNDADSVKGRFTISRDNAKNTVYLQMNSLKPEDTAVDYCAAESRFEGWGQGTQVTVSS”, the “polyreactivity (PSR sort gate)” value is recorded as “low polyreactivity”.

Take “QVQLVESGGGLVQAGGSLRLSCAASGGTFSKYAMGWYRQAPGKEREFVAAITVSGGGTYYADSVKGRFTISRDNAKNTVYLQMNSLKPEDTAVYYCAADLAWTASDYWGQGTQVTVSS”: the “polyreactivity (PSR sort gate)” value is recorded as “low polyreactivity”.

Turning to “QVQLVESGGGLVQAGGSLRLSCAASGGTFSPYAMGWYRQAPGKERELVAVIRSDVTTNYADSVKGRFTISRDNAKNTVYLQMNSLKPEDTAVYYCNVERHRVWDYQWREEDDYWGQGTQVTVSS”, the “polyreactivity (PSR sort gate)” value is on record as “low polyreactivity”.

“QVQLVESGGGLVQAGGSLRLSCAASGGTFSQYAMGWYRQAPGKERELVATISYSGTSTYYADSVKGRFTISRDNEKNTVYLHMNSLKPEDTAVYDCNIRWRWYRSDYYSWGQGTQVTVSS”: the “polyreactivity (PSR sort gate)” value is “high polyreactivity”.

As to “QVQLVESGGGLVQAGGSLRLSCAASGGTFSRNVMGWYRQAPGTERELVAAISFSGGTTYYADSVKGRFTISRDNAKNTVYLQMISLKPEDTAVYYCAARPVNTVRPFDYWGQGTQVTVSS”, the “polyreactivity (PSR sort gate)” value is “high polyreactivity”.

With “QVQLVESGGGLVQAGGSLRLSCAASGGTFSYYAMGWYRQAPGKGELVAAISSGGSTNYADSVKGRFTISRDNAKNTVYLQMNSLKPEDTAVYFCAARYRFWGPYNYWGQGTQVTVSS”, the “polyreactivity (PSR sort gate)” value is recorded as “high polyreactivity”.

For the sequence “QVQLVESGGGLVQAGGSLRLSCAASGGTFSYYAMGWYRQARGKERELDAAISGNGDTTYYADSVKGRFTISRDNAKNTVYLQMNSLKPEDTAVYYCAADGWGFIVGIDYYPYGEGDYWGQGTQVTVSS”, the “polyreactivity (PSR sort gate)” value is “low polyreactivity”.
